B1: Protein FAM9B (Homo sapiens), Q8IZU0 (parent)
chain: MAAWGKKHAGKDPVRDECEERNRFTETREEDVTDEHGEREPFAETDEHTGANTKKPEDTAEDLTAKRKRMKMDKTCSKTKNKSKHALRKKQLKRQKRDYIHSLKLLNVLEEYITDEQKEEEEEEGEEEELIRIFQEQQKKWQQYRSVRRERLKEMKLLRDQFVKALEDFEDLCDRVFSDEDSELDN
B2: Calcium-binding and coiled-coil domain-containing protein 2 (Homo sapiens), Q13137 (parent)
chain: MEETIKDPPTSAVLLDHCHFSQVIFNSVEKFYIPGGDVTCHYTFTQHFIPRRKDWIGIFRVGWKTTREYYTFMWVTLPIDLNNKSAKQQEVQFKAYYLPKDDEYYQFCYVDEDGVVRGASIPFQFRPENEEDILVVTTQGEVEEIEQHNKELCKENQELKDSCISLQKQNSDMQAELQKKQEELETLQSINKKLELKVKEQKDYWETELLQLKEQNQKMSSENEKMGIRVDQLQAQLSTQEKEMEKLVQGDQDKTEQLEQLKKENDHLFLSLTEQRKDQKKLEQTVEQMKQNETTAMKKQQELMDENFDLSKRLSENEIICNALQRQKERLEGENDLLKRENSRLLSYMGLDFNSLPYQVPTSDEGGARQNPGLAYGNPYSGIQESSSPSPLSIKKCPICKADDICDHTLEQQQMQPLCFNCPICDKIFPATEKQIFEDHVFCHSL
partner: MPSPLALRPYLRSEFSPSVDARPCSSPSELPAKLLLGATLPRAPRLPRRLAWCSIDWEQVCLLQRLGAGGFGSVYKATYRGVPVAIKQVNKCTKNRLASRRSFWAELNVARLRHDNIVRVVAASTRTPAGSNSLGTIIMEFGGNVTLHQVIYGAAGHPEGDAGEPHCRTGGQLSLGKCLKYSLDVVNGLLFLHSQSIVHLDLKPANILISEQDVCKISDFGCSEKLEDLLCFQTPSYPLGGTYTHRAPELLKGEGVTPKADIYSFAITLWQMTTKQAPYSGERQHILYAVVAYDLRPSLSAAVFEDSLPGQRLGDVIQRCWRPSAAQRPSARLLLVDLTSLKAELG
B3: Isoform 1 of Nucleoporin p54 (Homo sapiens), Q7Z3B4-1 (parent)
chain: MAFNFGAPSGTSGTAAATAAPAGGFGGFGTTSTTAGSAFSFSAPTNTGTTGLFGGTQNKGFGFGTGFGTTTGTSTGLGTGLGTGLGFGGFNTQQQQQTTLGGLFSQPTQAPTQSNQLINTASALSAPTLLGDERDAILAKWNQLQAFWGTGKGYFNNNIPPVEFTQENPFCRFKAVGYSCMPSNKDEDGLVVLVFNKKETEIRSQQQQLVESLHKVLGGNQTLTVNVEGTKTLPDDQTEVVIYVVERSPNGTSRRVPATTLYAHFEQANIKTQLQQLGVTLSMTRTELSPAQIKQLLQNPPAGVDPIIWEQAKVDNPDSEKLIPVPMVGFKELLRRLKVQDQMTKQHQTRLDIISEDISELQKNQTTSVAKIAQYKRKLMDLSHRTLQVLIKQEIQRKSGYAIQADEEQLRVQLDTIQGELNAPTQFKGRLNELMSQIRMQNHFGAVRSEERYYIDADLLREIKQHLKQQQEGLSHLISIIKDDLEDIKLVEHGLNETIHIRGGVFS

Variants of: B1
Settings: with dapk2_human DAPK2, Q9UIK4
dapk2_human DAPK2, Q9UIK4, sequence (Q9UIK4 whole entry, looked up): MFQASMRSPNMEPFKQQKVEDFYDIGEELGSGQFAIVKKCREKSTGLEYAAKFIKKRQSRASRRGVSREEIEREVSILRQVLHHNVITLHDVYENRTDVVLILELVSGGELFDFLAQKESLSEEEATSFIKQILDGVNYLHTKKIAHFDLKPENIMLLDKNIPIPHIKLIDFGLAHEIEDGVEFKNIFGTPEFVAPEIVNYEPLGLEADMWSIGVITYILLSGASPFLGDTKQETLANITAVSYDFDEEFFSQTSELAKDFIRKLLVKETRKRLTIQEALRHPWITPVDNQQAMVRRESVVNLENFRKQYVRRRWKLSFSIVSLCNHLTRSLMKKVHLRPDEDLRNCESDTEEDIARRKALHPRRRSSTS

Variant	effect of a mutation on the interaction
R23H	with no effect

Variants of: B1
Settings: with tr61b_human TRMT61B

Variant	effect of a mutation on the interaction
R23H	with no effect

Variants of: B1
Settings: with pin4_human PIN4, Q9Y237
pin4_human PIN4, Q9Y237, sequence (Q9Y237 whole entry): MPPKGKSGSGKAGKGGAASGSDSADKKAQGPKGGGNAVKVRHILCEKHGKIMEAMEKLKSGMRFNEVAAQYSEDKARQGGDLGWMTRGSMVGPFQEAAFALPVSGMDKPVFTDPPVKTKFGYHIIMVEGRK

Variant	effect of a mutation on the interaction
R23H	with no effect

Variants of: B1
Settings: with cc106_human CCDC106, Q9BWC9
cc106_human CCDC106, Q9BWC9, sequence (Q9BWC9 whole entry): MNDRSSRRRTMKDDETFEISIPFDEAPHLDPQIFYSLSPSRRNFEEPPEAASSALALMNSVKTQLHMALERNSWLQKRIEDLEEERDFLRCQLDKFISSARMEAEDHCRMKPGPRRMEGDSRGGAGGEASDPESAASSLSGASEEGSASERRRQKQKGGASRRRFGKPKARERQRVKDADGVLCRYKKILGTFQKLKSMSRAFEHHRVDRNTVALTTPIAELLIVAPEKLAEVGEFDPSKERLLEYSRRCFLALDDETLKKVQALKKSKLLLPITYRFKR

Variant	effect of a mutation on the interaction
R23H	with no effect

Variants of: B1
Settings: with eftu_human TUFM

Variant	effect of a mutation on the interaction
R23H	with no effect

Variants of: B1
Settings: with xrcc4_human XRCC4, Q13426
xrcc4_human XRCC4, Q13426, sequence (Q13426 whole entry): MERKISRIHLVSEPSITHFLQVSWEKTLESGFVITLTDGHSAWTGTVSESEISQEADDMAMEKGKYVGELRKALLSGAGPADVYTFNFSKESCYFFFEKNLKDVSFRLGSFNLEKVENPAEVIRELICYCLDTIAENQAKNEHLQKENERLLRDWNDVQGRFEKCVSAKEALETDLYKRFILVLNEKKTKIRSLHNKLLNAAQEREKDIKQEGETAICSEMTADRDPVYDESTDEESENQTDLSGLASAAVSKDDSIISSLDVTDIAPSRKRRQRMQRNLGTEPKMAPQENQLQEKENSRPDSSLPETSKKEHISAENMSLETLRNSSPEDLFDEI

Variant	effect of a mutation on the interaction
R23H	with no effect

Variants of: B1
Settings: with daxx_human DAXX

Variant	effect of a mutation on the interaction
R23H	with no effect

Variants of: B2
Settings: with mos_human MOS

Variant	effect of a mutation on the interaction
MEETIKDPPTSAVLLDHCHFSQVIFNSVEKFYIPGGDVTCHYTFTQHFIPRRKDWIGIFRVGWKTTREYYTFMWVTLPIDLNNKSAKQQEVQFKAYYLPKDDEYYQFCYVDEDGVVRGASIPFQFRPENEEDILVVTTQGEVEEIEQHNKELCKENQELKDSCISLQKQNSDMQAELQKKQEELETLQSINKKLELKVKEQKDYWETELLQLKEQNQKMSSKNEKMGIRVDQLQAQLSTQEKEMEKLVQGDQDKTEQLEQLKKENDHLFLSLTEQRKDQKKLEQTVEQMKQNETTAMKKQQELMDENFDLSKRLSENEIICNALQRQKERLEGENDLLKRENSRLLSYMGLDFNSLPYQVPTSDEGGARQNPGLAYGNPYSGIQESSSPSPLSIKKCPICKADDICDHTLEQQQMQPLCFNCPICDKIFPATEKQIFEDHVFCHSL [E222K]	with no effect

Variants of: B3
Settings: with nup58_human NUP58, Q9BVL2
nup58_human NUP58, Q9BVL2, sequence (Q9BVL2 whole entry): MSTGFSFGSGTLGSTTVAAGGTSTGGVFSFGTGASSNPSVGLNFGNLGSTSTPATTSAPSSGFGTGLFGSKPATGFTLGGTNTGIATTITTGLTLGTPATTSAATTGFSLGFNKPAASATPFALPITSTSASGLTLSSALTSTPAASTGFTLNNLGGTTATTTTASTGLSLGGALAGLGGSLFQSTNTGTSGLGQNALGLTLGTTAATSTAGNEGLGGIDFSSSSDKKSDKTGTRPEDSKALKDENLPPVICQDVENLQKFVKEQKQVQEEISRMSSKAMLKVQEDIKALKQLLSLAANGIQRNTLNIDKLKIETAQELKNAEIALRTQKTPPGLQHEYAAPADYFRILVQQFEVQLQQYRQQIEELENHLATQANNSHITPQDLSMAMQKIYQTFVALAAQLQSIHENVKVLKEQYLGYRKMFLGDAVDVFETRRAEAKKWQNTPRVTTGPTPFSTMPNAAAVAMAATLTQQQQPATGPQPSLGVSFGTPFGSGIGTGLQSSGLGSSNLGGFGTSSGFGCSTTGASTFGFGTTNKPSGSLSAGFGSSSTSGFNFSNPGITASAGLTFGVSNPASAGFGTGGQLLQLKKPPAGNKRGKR

Variant	effect of a mutation on the interaction
MAFNFGAPSGTSGTAAATAAPAGGFGGFGTTSTTAGSAFSFSAPTNTGTTGLFGGTQNKGFGFGTGFGTTTGTSTGLGTGLGTGLGFGGFNTQQQQQTTLGGLFSQPTQAPTQSNQLINTASALSAPTLLGDERDAILAKWNQLQAFWGTGKGYFNNNIPPVEFTQENPFCRFKAVGYSCMPSNKDEDGLVVLVFNKKETEIRSQQQQLVESLHKVLGGNQTLTVNVEGTKTLPDDQTEVVIYVVERSPNGTSRRVPATTLYAHFEQANIKTQLQQLGVTLSMTRTELSPAQIKQLLQNPPAGVDPIIWEQAKVDNPDSEKLIPVPMVGFKELLRRLKVQDQMTKQHQTRLDIISEDISELQKNQTTSVAKIAQYKRKLMDLSHRTLQVLIKQEIQRKSGYAIQADEEQLRVQLDAIQGELNAPTQFKGRLNELMSQIRMQNHFGAVRSEERYYIDADLLREIKQHLKQQQEGLSHLISIIKDDLEDIKLVEHGLNETIHIRGGVFS [T416A]	with no effect

Variants of: B3
Settings: with hgs_human HGS

Variant	effect of a mutation on the interaction
MAFNFGAPSGTSGTAAATAAPAGGFGGFGTTSTTAGSAFSFSAPTNTGTTGLFGGTQNKGFGFGTGFGTTTGTSTGLGTGLGTGLGFGGFNTQQQQQTTLGGLFSQPTQAPTQSNQLINTASALSAPTLLGDERDAILAKWNQLQAFWGTGKGYFNNNIPPVEFTQENPFCRFKAVGYSCMPSNKDEDGLVVLVFNKKETEIRSQQQQLVESLHKVLGGNQTLTVNVEGTKTLPDDQTEVVIYVVERSPNGTSRRVPATTLYAHFEQANIKTQLQQLGVTLSMTRTELSPAQIKQLLQNPPAGVDPIIWEQAKVDNPDSEKLIPVPMVGFKELLRRLKVQDQMTKQHQTRLDIISEDISELQKNQTTSVAKIAQYKRKLMDLSHRTLQVLIKQEIQRKSGYAIQADEEQLRVQLDAIQGELNAPTQFKGRLNELMSQIRMQNHFGAVRSEERYYIDADLLREIKQHLKQQQEGLSHLISIIKDDLEDIKLVEHGLNETIHIRGGVFS [T416A]	with no effect

Variants of: B3
Settings: with nup62_human NUP62, P37198
nup62_human NUP62, P37198, sequence (P37198 whole entry): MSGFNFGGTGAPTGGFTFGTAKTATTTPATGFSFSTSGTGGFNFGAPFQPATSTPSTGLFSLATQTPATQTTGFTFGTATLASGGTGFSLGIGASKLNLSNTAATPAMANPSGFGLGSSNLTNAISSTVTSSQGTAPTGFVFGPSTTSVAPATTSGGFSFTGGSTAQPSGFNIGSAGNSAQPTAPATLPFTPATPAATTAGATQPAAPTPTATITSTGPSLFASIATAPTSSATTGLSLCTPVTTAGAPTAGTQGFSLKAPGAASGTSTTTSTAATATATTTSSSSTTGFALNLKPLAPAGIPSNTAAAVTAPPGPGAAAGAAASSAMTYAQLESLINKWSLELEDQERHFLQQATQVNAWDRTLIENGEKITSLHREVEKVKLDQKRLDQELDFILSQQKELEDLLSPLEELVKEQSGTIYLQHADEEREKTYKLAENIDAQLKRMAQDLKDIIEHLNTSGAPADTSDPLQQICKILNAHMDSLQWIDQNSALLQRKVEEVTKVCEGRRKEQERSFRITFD

Variant	effect of a mutation on the interaction
MAFNFGAPSGTSGTAAATAAPAGGFGGFGTTSTTAGSAFSFSAPTNTGTTGLFGGTQNKGFGFGTGFGTTTGTSTGLGTGLGTGLGFGGFNTQQQQQTTLGGLFSQPTQAPTQSNQLINTASALSAPTLLGDERDAILAKWNQLQAFWGTGKGYFNNNIPPVEFTQENPFCRFKAVGYSCMPSNKDEDGLVVLVFNKKETEIRSQQQQLVESLHKVLGGNQTLTVNVEGTKTLPDDQTEVVIYVVERSPNGTSRRVPATTLYAHFEQANIKTQLQQLGVTLSMTRTELSPAQIKQLLQNPPAGVDPIIWEQAKVDNPDSEKLIPVPMVGFKELLRRLKVQDQMTKQHQTRLDIISEDISELQKNQTTSVAKIAQYKRKLMDLSHRTLQVLIKQEIQRKSGYAIQADEEQLRVQLDAIQGELNAPTQFKGRLNELMSQIRMQNHFGAVRSEERYYIDADLLREIKQHLKQQQEGLSHLISIIKDDLEDIKLVEHGLNETIHIRGGVFS [T416A]	with no effect

Variants of: B3
Settings: with KRT15, P19012
KRT15, P19012, sequence (P19012 whole entry): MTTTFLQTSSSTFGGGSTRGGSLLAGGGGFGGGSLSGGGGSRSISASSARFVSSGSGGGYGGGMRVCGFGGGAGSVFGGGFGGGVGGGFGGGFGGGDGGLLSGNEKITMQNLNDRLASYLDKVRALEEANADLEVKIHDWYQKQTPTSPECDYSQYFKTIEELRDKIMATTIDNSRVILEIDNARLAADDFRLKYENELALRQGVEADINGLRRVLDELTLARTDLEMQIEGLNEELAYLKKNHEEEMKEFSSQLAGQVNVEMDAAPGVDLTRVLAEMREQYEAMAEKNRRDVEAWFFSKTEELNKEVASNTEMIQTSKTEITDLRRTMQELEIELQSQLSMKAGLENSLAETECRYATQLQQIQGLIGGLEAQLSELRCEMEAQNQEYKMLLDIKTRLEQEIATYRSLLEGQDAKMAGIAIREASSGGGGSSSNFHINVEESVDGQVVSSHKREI

Variant	effect of a mutation on the interaction
MAFNFGAPSGTSGTAAATAAPAGGFGGFGTTSTTAGSAFSFSAPTNTGTTGLFGGTQNKGFGFGTGFGTTTGTSTGLGTGLGTGLGFGGFNTQQQQQTTLGGLFSQPTQAPTQSNQLINTASALSAPTLLGDERDAILAKWNQLQAFWGTGKGYFNNNIPPVEFTQENPFCRFKAVGYSCMPSNKDEDGLVVLVFNKKETEIRSQQQQLVESLHKVLGGNQTLTVNVEGTKTLPDDQTEVVIYVVERSPNGTSRRVPATTLYAHFEQANIKTQLQQLGVTLSMTRTELSPAQIKQLLQNPPAGVDPIIWEQAKVDNPDSEKLIPVPMVGFKELLRRLKVQDQMTKQHQTRLDIISEDISELQKNQTTSVAKIAQYKRKLMDLSHRTLQVLIKQEIQRKSGYAIQADEEQLRVQLDAIQGELNAPTQFKGRLNELMSQIRMQNHFGAVRSEERYYIDADLLREIKQHLKQQQEGLSHLISIIKDDLEDIKLVEHGLNETIHIRGGVFS [T416A]	with no effect

Source: IntAct's records for PubMed 31515488
